Target: TrkB (Homo sapiens (Human), UniProt Q16620 32-430)
Test: koff of Fab at 25 C; T1/2=Log2/koff
Summary of the method: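 Monovalent Fab fragments were tested at 25° C by surface plasmon resonance on a Biacore instrument, against TrkB extracellular-domain monomer amine-coupled to the chip at low capacity. Fabs were injected low to high as a 3-fold serial dilution from 100 nM for 84 sec, with a 10 minute dissociation after the top sample. The dissociation half-life was calculated from koff, which was fitted to a Langmuir binding model in BIAevaluation. The formula used was T1/2 = Log 2/koff.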

Sequence of TrkB (Q16620 32-430 limits assumed): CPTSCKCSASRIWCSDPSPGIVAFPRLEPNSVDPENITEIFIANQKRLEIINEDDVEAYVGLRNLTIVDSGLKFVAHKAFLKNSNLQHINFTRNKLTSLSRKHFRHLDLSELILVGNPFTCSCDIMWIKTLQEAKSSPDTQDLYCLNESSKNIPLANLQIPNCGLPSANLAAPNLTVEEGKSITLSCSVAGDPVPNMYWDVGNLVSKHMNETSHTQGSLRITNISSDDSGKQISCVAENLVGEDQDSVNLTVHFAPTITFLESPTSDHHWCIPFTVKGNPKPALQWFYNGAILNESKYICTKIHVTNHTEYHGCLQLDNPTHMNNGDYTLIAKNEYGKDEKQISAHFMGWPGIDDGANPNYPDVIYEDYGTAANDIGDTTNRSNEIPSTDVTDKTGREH

| Binder | T1/2 |
| --- | --- |
| 13-H6 (Fab, V domains shown, Fab) VH: QVQLVQSGAEVKKPGASVKVSCKASGYTFTNYDIIWVRQAPGQGLEWMGYINPYNDGRKENEKFKGRVTMTRDTSTSTVYMELSSLRSEDTAVYYCARLLKYRRFRYYAIDYWGQGTTVTVSS VL: DIQMTQSPSSLSASVGDRVTITCRASENVYSHLAWYQQKPGKAPKLLIYAASNLQSGVPSRFSGSGSGTDYTFTISSLQPEDIATYYCQHFVYSPFTFGQGTKLEIK | 13 min |
| 14-A6 (Fab, V domains shown, Fab) VH: QVQLVQSGAEVKKPGASVKVSCKASGYTFTNYDIIWVRQAPGQGLEWMGYINPYNRRREYNEKFKGRVTMTRDTSTSTVYMELSSLRSEDTAVYYCARLLKYRRFRYYAIDYWGQGTTVTVSS VL: DIQMTQSPSSLSASVGDRVTITCHASENVYSNLAWYQQKPGKAPKLLIYAASNLQSGVPSRFSGSGSGTDFTFTISSLQPEDIATYYCQHFWGSPFTFGQGTKLEIK | 2.8 min |
| 15-G6 (Fab, V domains shown, Fab) VH: QVQLVQSGAEVKKPGASVKVSCKASGYTFTNYDIIWVRQAPGQGLEWMGYINPYNDGTKYNEKFKGRVTMTRDTSTSTVYMELSSLRSEDTAVYYCARLLKYRRFKYYAIDYWGQGTTVTVSS VL: DIQMTQSPSSLSASVGDRVTITCRTSENVYSNLAWYQQKPGKAPKLLIYAASNLQSGVPSRFSGSGSGTDFTFTISSLQPEDIATYYCQQFWYSPFTFGQGTKLEIK | 1.8 min |
| 14-B1 (Fab, V domains shown, Fab) VH: QVQLVQSGAEVKKPGASVKVSCKASGYTFTNYDIIWVRQAPGQGLEWMGYINPYNDGRKENEKFKGRVTMTRDTSTSTVYMELSSLRSEDTAVYYCARLLKYRRFRYYAIDYWGQGTTVTVSS VL: DIQMTQSPSSLSASVGDRVTITCRASEPVYSNLAWYQQKPGKAPKLLIYAASNLQSGVPSRFSGSGSGTDYTFTISSLQPEDIATYYCQHFWGSPFTFGQGTKLEIK | 13 min |

Next, values leading:

| T1/2 | Binder |
| --- | --- |
| 5 min | 16-B7 (Fab, V domains shown, Fab) VH: QVQLVQSGAEVKKPGASVKVSCKASGYTFTNYDIIWVRQAPGQGLEWMGYINPYNDGTKYNEKFKGRVTMTRDTSTSTVYMELSSLRSEDTAVYYCARLLKYRRFRYYAIDYWGQGTTVTVSS VL: DIQMTQSPSSLSASVGDRVTITCRASENVYSNLAWYQQKPGKAPKLLIYAASNLADGVPSRFSGSGSGTDFTFTISSLQPEDIATYYCQHFWASPFTFGQGTKLEIK |
| 6 min | 16-A10 (Fab, V domains shown, Fab) VH: QVQLVQSGAEVKKPGASVKVSCKASGYTFTNYDIIWVRQAPGQGLEWMGYINPYNDGTKYNEKFKGRVTMTRDTSTSTVYMELSSLRSEDTAVYYCARLLKYRRFRYYAIDYWGQGTTVTVSS VL: DIQMTQSPSSLSASVGDRVTITCRTSENVYSNLAWYQQKPGKAPKLLIYAASNLQSGVPSRFSGSGSGTDFTFTISSLQPEDIATYYCQHFWYSPWTFGQGTKLEIK |
| 1 min | 16-A6 (Fab, V domains shown, Fab) VH: QVQLVQSGAEVKKPGASVKVSCKASGYTFTNYDIIWVRQAPGQGLEWMGYINPYNDGTKYNEKFKGRVTMTRDTSTSTVYMELSSLRSEDTAVYYCARLLKYRRFRYYAIDYWGQGTTVTVSS VL: DIQMTQSPSSLSASVGDRVTITCRTSENVYSNLAWYQQKPGKAPKLLIYAASNLADGVPSRFSGSGSGTDFTFTISSLQPEDIATYYCQHFWASPFTFGQGTKLEIK |
| 2.1 min | 15-H1 (Fab, V domains shown, Fab) VH: QVQLVQSGAEVKKPGASVKVSCKASGYTFTNYDIIWVRQAPGQGLEWMGYINPYNDGTKYNEKFKGRVTMTRDTSTSTVYMELSSLRSEDTAVYYCARLLKYACFREEAIDYWGQGTTVTVSS VL: DIQMTQSPSSLSASVGDRVTITCRASENVYSNLAWYQQKPGKAPKLLIYAASNLQSGVPSRFSGSGSGTDFTFTISSLQPEDIATYYCQHFWESPFTFGQGTKLEIK |

From US20100196390A1 (RINAT NEUROSCIENCE, published 2010)
